Experimental data published in patent publication US10660972B2, “Methods for coupling targeting peptides onto recombinant lysosomal enzymes for improved treatments of lysosomal storage diseases” (AMICUS THERAPEUTICS, INC., priority 2011, dated 2020).

Legend:
Fabry disease = conditions: 1 mg/kg body weight every other week; cited from earlier work
IGF-2/CI-MPR = IGF-2/CI-MPR (Homo sapiens, UniProt P11717); conditions: ligand affinity for IGF-2/CI-MPR; read-out: Binding Affinity (Apparent Kd; nM); cited from earlier work
[1] = test system: lysosomal enzyme activity (rhGAA, I2S); assay: Enzyme activity of lysosomal enzyme after conjugation or deglycosylation; format: biochemical, human; conditions: after conjugation of variant IGF2 peptide (data not shown)
Source text: The high-mannose type N-glycans on rhGAA is problematic because it is believed that these carbohydrates cause the protein to be rapidly cleared from the circulation via macrophage and splenic mannose receptors. […] Deglycosylation of rhGAA can be performed after the enzyme is modified with S-Hynic and purified (via size exclusion chromatography or dialysis to remove excess crosslinker). This strategy allows for complete deglycosylation of rhGAA over 1-5 days using EndoF or EndoH without affecting enzyme activity. The deglycosylated hydrazide-modified rhGAA is then conjugated to PEG4-benzaldehyde-modified IGF-2 peptides. Alternatively, rhGAA deglycosylation can be performed concurrently during the conjugation of PEG4-benzaldehyde-modified IGF-2 peptide to hydrazide-modified rhGAA using high concentrations of EndoF or EndoH. Deglycosylated, IGF2 peptide-conjugated rhGAA is then purified by gel filtration chromatography or dialysis to remove excess phosphine-modified IGF-2 peptides and stored in acidic pH buffer (50 mM sodium phosphate, pH 6.2/100 mM NaCl/0.05% Polysorbate-80). […]
To assess the functional effects of IGF2 peptide for the cellular uptake of exogenous lysosomal enzymes, the internalization of IGF2-conjugated rbGAA (vIGF2-rhGAA) was evaluated in L6 rat skeletal muscle myoblasts. […]

Sequence of IGF-2/CI-MPR (P11717 41-2491): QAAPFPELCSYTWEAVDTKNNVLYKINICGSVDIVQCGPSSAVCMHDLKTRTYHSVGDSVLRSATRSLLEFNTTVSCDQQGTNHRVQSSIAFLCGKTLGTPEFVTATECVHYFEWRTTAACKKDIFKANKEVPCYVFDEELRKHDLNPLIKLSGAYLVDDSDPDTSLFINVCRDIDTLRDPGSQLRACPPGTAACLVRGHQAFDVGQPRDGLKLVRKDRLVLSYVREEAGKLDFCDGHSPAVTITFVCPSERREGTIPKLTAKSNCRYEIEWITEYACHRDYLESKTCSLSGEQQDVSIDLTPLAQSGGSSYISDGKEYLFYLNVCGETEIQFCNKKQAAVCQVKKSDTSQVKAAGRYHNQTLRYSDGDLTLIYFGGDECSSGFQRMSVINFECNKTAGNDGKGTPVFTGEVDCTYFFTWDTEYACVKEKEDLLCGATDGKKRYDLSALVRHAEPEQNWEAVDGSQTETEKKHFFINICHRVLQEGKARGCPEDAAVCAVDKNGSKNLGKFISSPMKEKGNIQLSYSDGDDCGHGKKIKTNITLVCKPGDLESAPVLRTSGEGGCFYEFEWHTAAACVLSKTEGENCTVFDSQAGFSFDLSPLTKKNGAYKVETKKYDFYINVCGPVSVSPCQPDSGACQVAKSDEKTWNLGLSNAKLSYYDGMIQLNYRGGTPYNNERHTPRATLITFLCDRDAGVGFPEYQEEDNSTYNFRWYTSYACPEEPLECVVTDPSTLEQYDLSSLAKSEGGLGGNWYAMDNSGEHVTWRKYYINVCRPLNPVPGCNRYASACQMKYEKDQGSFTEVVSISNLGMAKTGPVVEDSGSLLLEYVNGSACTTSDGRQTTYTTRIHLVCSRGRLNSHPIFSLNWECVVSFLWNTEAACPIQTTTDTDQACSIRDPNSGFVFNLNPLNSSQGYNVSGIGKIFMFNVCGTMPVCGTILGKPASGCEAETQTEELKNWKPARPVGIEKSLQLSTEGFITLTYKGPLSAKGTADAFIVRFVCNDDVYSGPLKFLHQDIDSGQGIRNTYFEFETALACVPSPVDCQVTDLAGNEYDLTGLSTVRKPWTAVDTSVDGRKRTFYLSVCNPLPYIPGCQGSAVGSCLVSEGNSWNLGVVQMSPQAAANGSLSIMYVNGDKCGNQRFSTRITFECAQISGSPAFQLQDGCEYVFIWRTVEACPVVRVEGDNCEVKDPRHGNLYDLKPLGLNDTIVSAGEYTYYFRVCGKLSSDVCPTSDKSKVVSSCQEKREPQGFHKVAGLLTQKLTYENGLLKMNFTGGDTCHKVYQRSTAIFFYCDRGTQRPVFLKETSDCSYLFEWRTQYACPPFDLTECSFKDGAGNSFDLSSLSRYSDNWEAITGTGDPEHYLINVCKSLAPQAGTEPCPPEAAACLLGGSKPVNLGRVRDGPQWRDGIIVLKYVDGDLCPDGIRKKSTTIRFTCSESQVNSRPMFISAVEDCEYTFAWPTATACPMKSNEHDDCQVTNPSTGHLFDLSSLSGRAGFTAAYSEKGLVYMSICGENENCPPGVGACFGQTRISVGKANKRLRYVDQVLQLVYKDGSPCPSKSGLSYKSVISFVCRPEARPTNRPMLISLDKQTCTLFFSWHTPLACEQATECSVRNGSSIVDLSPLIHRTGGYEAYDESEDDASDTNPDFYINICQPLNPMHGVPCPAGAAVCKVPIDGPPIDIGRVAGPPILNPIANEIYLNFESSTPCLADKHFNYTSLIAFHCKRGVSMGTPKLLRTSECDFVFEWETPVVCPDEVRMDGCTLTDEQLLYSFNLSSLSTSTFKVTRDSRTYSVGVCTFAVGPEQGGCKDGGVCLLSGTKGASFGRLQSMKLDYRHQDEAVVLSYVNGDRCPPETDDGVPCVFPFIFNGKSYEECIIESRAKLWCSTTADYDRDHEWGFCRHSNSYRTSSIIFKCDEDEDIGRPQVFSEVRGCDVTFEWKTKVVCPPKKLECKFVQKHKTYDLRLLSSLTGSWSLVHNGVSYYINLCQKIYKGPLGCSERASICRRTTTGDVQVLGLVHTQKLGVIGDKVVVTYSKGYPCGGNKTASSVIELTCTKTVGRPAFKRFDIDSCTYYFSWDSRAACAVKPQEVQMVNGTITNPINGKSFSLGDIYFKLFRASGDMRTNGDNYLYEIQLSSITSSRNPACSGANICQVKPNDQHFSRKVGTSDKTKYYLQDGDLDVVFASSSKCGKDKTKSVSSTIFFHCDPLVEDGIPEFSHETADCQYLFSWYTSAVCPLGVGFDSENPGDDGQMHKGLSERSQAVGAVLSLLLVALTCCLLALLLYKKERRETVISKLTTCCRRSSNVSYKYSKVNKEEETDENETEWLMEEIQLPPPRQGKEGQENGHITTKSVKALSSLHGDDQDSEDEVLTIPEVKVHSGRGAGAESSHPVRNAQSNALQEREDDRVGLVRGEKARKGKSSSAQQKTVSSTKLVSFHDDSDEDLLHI

B1: Fabrazyme: recombinant acid α-galactosidase A; Genzyme Corp. (protein, UniProt P06280 32-429, looked up)
Alpha-galactosidase A: LDNGLARTPTMGWLHWERFMCNLDCQEEPDSCISEKLFMEMAELMVSEGWKDAGYEYLCIDDCWMAPQRDSEGRLQADPQRFPHGIRQLANYVHSKGLKLGIYADVGNKTCAGFPGSFGYYDIDAQTFADWGVDLLKFDGCYCDSLENLADGYKHMSLALNRTGRSIVYSCEWPLYMWPFQKPNYTEIRQYCNHWRNFADIDDSWKSIKSILDWTSFNQERIVDVAGPGGWNDPDMLVIGNFGLSWNQQVTQMALWAIMAAPLFMSNDLRHISPQAKALLQDKDVIAINQDPLGKQGYQLRQGDNFEVWERPLSGLAWAVAMINRQEIGGPRSYTIAVASLGKGVACNPACFITQLLPVKRKLGFYEWTSRLRSHINPTGTVLLQLENTMQMSLKDLL
Question: With B1 as the molecule, how does the “clinical effectiveness in Fabry disease” value (Fabry disease) read?
Answer: sufficient to clear accumulated substrate from endothelial cells

B2: beta-galactosidase: lysosomal enzyme listed as ligand of IGF-2/CI-MPR (protein, UniProt P16278 29-677, looked up)
Beta-galactosidase: QRMFEIDYSRDSFLKDGQPFRYISGSIHYSRVPRFYWKDRLLKMKMAGLNAIQTYVPWNFHEPWPGQYQFSEDHDVEYFLRLAHELGLLVILRPGPYICAEWEMGGLPAWLLEKESILLRSSDPDYLAAVDKWLGVLLPKMKPLLYQNGGPVITVQVENEYGSYFACDFDYLRFLQKRFRHHLGDDVVLFTTDGAHKTFLKCGALQGLYTTVDFGTGSNITDAFLSQRKCEPKGPLINSEFYTGWLDHWGQPHSTIKTEAVASSLYDILARGASVNLYMFIGGTNFAYWNGANSPYAAQPTSYDYDAPLSEAGDLTEKYFALRNIIQKFEKVPEGPIPPSTPKFAYGKVTLEKLKTVGAALDILCPSGPIKSLYPLTFIQVKQHYGFVLYRTTLPQDCSNPAPLSSPLNGVHDRAYVAVDGIPQGVLERNNVITLNITGKAGATLDLLVENMGRVNYGAYINDFKGLVSNLTLSSNILTDWTIFPLDTEDAVRSHLGGWGHRDSGHHDEAWAHNSSNYTLPAFYMGNFSIPSGIPDLPQDTFIQFPGWTKGQVWINGFNLGRYWPARGPQLTLFVPQHILMTSAPNTITVLELEWAPCSSDDPELCAVTFVDRPVIGSSVTYDHPSKPVEKRLMPPPPQKNKDSWLDHV
Question: For B2, which Kd (IGF-2/CI-MPR) is on record?
Answer: 20 nM

B3: I2S: Recombinant human acid iduronidate 2-sulfatase (protein, UniProt P22304 34-455; P22304 456-550, looked up)
Iduronate 2-sulfatase 42 kDa …: TDALNVLLIIVDDLRPSLGCYGDKLVRSPNIDQLASHSLLFQNAFAQQAVCAPSRVSFLTGRRPDTTRLYDFNSYWRVHAGNFSTIPQYFKENGYVTMSVGKVFHPGISSNHTDDSPYSWSFPPYHPSSEKYENTKTCRGPDGELHANLLCPVDVLDVPEGTLPDKQSTEQAIQLLEKMKTSASPFFLAVGYHKPHIPFRYPKEFQKLYPLENITLAPDPEVPDGLPPVAYNPWMDIRQREDVQALNISVPYGPIPVDFQRKIRQSYFASVSYLDTQVGRLLSALDDLQLANSTIIAFTSDHGWALGEHGEWAKYSNFDVATHVPLIFYVPGRTASLPEAGEKLFPYLDPFDSASQLMEPGRQSMDLVELVSLFPTLAGLAGLQVPPRCPVPSFHVELCREGKNLLKHFRFRDLEEDPYLPG
Iduronate 2-sulfatase 14 kDa …: NPRELIAYSQYPRPSDIPQWNSDKPSLKDIKIMGYSIRTIDYRYTVWVGFNPDEFLANFSDIHAGELYFVDSDPLQDHNMYNDSQGGDLFQLLMP
Question: With B3 as the molecule, how does the “effect of chemical conjugation of variant IGF2 peptide on enzyme activity” value [1] read?
Answer: did not affect enzyme activity
